Experimental findings from IntAct's records for PubMed 17290217 are described below.

B1: Phosphatidylinositol 4-phosphate 5-kinase type-1 gamma (Mus musculus), O70161 (parent)
chain: MELEVPDEAESAEAGAVTAEAAWSAESGAAAGMTQKKAGLAEAPLVTGQPGPGHGKKLGHRGVDASGETTYKKTTSSTLKGAIQLGIGYTVGNLSSKPERDVLMQDFYVVESIFFPSEGSNLTPAHHFQDFRFKTYAPVAFRYFRELFGIRPDDYLYSLCNEPLIELSNPGASGSVFYVTSDDEFIIKTVMHKEAEFLQKLLPGYYMNLNQNPRTLLPKFYGLYCVQSGGKNIRVVVMNNVLPRVVKMHLKFDLKGSTYKRRASKKEKEKSLPTYKDLDFMQDMPEGLLLDSDTFGALVKTLQRDCLVLESFKIMDYSLLLGVHNIDQQERERQAEGAQSKADEKRPVAQKALYSTAMESIQGGAARGEAIETDDTMGGIPAVNGRGERLLLHIGIIDILQSYRFIKKLEHTWKALVHDGDTVSVHRPSFYAERFFKFMSSTVFRKSSSLKSSPSKKGRGALLAVKPLGPTAAFSASQIPSEREDVQYDLRGARSYPTLEDEGRPDLLPCTPPSFEEATTASIATTLSSTSLSIPERSPSDTSEQPRYRRRTQSSGQDGRPQEEPHAEDLQKITVQVEPVCGVGVVPKEEGAGVEVPPCGASAAASVEIDAASQASEPASQASDEEDAPSTDIYFPTDERSWVYSPLHYSARPASDGESDT

In one experiment the parent is B1. Conditions: with Ap2b1, Q9DBG3-2.
Ap2b1, Q9DBG3-2, sequence (Q9DBG3 other isoform, or with tags, fused parts or gaps): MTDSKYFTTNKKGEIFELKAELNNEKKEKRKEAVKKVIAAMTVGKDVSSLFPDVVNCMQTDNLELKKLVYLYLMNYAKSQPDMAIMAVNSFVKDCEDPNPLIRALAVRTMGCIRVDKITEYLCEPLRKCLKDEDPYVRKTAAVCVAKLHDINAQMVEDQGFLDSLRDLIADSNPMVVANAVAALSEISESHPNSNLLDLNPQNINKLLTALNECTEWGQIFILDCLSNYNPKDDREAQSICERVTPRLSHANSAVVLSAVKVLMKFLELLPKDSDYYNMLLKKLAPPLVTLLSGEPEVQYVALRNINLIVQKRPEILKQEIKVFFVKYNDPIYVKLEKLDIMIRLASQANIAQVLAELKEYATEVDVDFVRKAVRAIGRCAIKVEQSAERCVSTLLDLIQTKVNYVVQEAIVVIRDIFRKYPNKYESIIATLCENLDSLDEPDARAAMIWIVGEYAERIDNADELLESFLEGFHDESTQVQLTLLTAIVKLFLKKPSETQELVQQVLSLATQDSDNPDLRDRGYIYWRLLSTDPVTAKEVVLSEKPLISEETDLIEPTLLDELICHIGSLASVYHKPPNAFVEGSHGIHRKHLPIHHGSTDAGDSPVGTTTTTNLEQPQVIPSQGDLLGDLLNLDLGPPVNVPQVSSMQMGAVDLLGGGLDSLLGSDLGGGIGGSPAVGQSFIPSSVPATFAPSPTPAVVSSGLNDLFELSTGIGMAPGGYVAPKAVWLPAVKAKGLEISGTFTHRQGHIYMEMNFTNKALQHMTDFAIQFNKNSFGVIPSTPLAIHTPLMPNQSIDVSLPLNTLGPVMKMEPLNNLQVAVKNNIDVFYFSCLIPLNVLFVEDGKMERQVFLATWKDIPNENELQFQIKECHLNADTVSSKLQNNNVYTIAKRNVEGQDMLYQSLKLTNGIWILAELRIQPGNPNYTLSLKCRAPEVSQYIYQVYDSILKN
Turning to S645E, the “effect of a mutation on the interaction” value is reported as “disrupting interaction”.

The variants in the next experiment derive from B1. Conditions: with Ap2b1, Q9DBG3-1.
Ap2b1, Q9DBG3-1, sequence (Q9DBG3 whole entry): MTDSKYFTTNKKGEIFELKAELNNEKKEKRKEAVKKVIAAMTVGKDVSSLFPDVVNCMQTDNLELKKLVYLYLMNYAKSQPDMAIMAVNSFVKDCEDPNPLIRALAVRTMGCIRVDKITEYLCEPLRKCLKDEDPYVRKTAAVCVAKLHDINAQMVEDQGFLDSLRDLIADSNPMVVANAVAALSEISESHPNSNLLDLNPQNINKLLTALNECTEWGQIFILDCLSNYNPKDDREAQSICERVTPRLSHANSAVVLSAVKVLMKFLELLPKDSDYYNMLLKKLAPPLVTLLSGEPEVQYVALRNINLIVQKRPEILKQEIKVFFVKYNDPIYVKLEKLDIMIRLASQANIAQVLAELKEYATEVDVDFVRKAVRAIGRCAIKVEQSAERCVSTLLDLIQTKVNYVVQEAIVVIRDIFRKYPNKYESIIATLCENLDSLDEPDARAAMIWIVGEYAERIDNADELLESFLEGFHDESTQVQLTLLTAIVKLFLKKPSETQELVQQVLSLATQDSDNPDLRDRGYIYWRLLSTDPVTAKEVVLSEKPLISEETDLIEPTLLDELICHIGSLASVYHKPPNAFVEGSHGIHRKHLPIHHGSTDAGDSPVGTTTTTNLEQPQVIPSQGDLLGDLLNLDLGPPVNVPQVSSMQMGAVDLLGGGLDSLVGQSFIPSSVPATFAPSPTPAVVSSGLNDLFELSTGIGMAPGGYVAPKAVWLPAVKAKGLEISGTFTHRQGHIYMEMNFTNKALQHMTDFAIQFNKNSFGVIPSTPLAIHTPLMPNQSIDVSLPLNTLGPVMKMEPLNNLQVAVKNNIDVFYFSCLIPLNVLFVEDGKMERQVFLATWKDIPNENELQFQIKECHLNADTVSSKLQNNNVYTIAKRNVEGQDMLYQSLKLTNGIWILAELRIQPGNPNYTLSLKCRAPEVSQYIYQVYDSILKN
In the case of S645E, the “effect of a mutation on the interaction” value is given as “disrupting interaction”.

In another experiment the parent is B1. Conditions: with Ap2b1, Q9DBG3-1. This is another data set of the same source.
For the variant D277A, the “effect of a mutation on the interaction” value was “disrupting interaction”.
